Results: PMC9542875

Legend:
[1] = target: phycocyanin αβ dimer (Arthrospira maxima CCAP 1475/9) (Arthrospira maxima (CCAP 1475/9)); assay: native MS; purified PC without metal ions, 1 μM hexamer (Fig. 1D); 100 mM ammonium acetate pH 6.8; nano-electrospray, Orbitrap; hexamer to αβ dimers
[2] = target: phycocyanin αβ dimer (Arthrospira maxima CCAP 1475/9) (Arthrospira maxima (CCAP 1475/9)); assay: native MS; purified PC (24 μM bilin) with Ag+ at 0.25 and 0.5 bilin equivalents; 100 mM ammonium acetate
[3] = target: allophycocyanin αβ dimer (purified APC, Sigma-Aldrich A7472) (UniProt P72504); assay: native MS; purified APC, 1 μM hexamer (6 μM bilin); 100 mM ammonium acetate; without metal ions and with Ag+, Cu2+, Fe2+/3+ or Zn2+ (oligomeric equilibrium unchanged on a short timescale; prolonged exposure to Cu2+ gives dissociation towards the dimer)

Row | stoichiometry N [1] | stoichiometry N [2] | stoichiometry N [3] | Substance
1 | 3 | 2 |  | phycocyanin αβ dimer (Arthrospira maxima CCAP 1475/9) (from UniProt P72509 1-162; P72508 1-172) (complex)
2 |  |  | 3 | allophycocyanin αβ dimer (purified APC, Sigma-Aldrich A7472) (from UniProt P72504 1-161; P72505 1-161) (complex)
